{"source": "paper PMC117134", "target": "HIV-1 reverse transcriptase p66 subunit, wild type (HIV-1)", "assay": "glycerol gradient ultracentrifugation", "data": [{"substance": "HIV-1 reverse transcriptase p66 subunit, wild type (enzyme)", "values": [{"measurement": "stoichiometry N", "value": 2}]}]}
